In PMC4802042:

How the values were obtained:
[1] = target: double-phosphorylated JNK1 (phospho-JNK1) (human)
[2] = target: double-phosphorylated JNK1 (phospho-JNK1) (human); remark: listed apart in the source

phosphatase activity for JNK1 dephosphorylation, relative to wild-type MKP7-CD (Fig. 4a) [1]	Km of MKP5-CD for pJNK1 substrate, relative to that of MKP7-CD [2]	Binder
10 fold		MKP7-CD (F285A) (domain or fragment) NIGPTRILPNLYLGCQRDVLNKELMQQNGIGYVLNASNTCPKPDFIPESHFLRVPVNDSFCEKILPWLDKSVDFIEKAKASNGCVLVHCLAGISRSATIAIAYIMKRMDMSLDEAYRFVKEKRPTISPNANFLGQLLDYEKKIKNQ
	20 fold	MKP5 catalytic domain (MKP5-CD, residues 320-467) (domain or fragment) AELTPILPFLFLGNEQDAQDLDTMQRLNIGYVINVTTHLPLYHYEKGLFNYKRLPATDSNKQNLRQYFEEAFEFIEEAHQCGKGLLIHCQAGVSRSATIVIAYLMKHTRMTMTDAYKFVKGKRPIISPNLNFMGQLLEFEEDLNNGVT
